Assay results published in US20190169305A1 (TEIKYO HEISEI UNIVERSITY, published 2019).

Legend:
[1] = target: T1, human TRAIL-R2:alpaca Fc (hTRAIL-R2:Fc) (human; Lama pacos (alpaca)); experiment: SPR, Biacore X-100, multi-cycle kinetics, 4E6 monomer as analyte (0.919-117.6 nM)
T1 construct: also called hTRAIL-R2:Fc antigen; recombinant human TRAIL-R2:Fc antigen
T1 chain: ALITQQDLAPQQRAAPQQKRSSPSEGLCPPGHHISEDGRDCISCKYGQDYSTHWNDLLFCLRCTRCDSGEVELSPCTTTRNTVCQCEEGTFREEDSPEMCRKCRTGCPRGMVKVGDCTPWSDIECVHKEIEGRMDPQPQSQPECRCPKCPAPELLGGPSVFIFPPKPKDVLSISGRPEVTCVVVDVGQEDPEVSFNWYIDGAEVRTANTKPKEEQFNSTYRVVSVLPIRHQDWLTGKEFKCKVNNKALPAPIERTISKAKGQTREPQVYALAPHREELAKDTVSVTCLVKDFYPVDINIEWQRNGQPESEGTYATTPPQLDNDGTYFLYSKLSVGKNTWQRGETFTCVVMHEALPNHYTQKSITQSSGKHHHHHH

bovine serum albumin = target: T2, bovine serum albumin (bovine, UniProt P02769 25-607); experiment: ELISA, BSA coated at 1 or 10 µg/ml, 4E6 monomer at 1 µg/ml, detected with anti-Myc 9E10 and anti-mouse IgG HRP, OD450
T2 construct: also called BSA; BSA negative antigen

[2] = target: T3, human TRAIL-R1:alpaca Fc (hTRAIL-R1:Fc) (human; Lama pacos (alpaca)); experiment: ELISA, antigens coated at 1 µg/ml, VHH monomer at 10 µg/ml, absorbance 450 nm
T3 construct: also called hTRAIL-R1:Fc antigen; recombinant human TRAIL-R1 ECD
T3 chain: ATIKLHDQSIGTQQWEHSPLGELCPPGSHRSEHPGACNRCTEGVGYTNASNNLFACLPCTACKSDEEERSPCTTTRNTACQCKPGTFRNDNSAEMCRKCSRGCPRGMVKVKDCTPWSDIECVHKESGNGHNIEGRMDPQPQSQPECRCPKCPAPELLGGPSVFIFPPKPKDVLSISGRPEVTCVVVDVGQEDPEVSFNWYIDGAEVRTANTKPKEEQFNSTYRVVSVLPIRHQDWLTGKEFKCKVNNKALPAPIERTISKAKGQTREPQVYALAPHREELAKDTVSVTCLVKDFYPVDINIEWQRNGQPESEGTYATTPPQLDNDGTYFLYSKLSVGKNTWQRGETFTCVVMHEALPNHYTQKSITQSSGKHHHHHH

[3] = target: T4, mouse TRAIL-R2:alpaca Fc (mTRAIL-R2:Fc) (mouse; Lama pacos (alpaca), UniProt Q9QZM4 52-177); experiment: as above
T4 construct: range 52-177;range 102-335; also called mTRAIL (mouse TRAIL)-R2:Fc
T4 sequence: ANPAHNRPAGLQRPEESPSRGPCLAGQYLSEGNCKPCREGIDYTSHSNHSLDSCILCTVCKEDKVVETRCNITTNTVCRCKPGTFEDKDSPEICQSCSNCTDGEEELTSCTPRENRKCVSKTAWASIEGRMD

T2 sequence (P02769 25-607 limits assumed): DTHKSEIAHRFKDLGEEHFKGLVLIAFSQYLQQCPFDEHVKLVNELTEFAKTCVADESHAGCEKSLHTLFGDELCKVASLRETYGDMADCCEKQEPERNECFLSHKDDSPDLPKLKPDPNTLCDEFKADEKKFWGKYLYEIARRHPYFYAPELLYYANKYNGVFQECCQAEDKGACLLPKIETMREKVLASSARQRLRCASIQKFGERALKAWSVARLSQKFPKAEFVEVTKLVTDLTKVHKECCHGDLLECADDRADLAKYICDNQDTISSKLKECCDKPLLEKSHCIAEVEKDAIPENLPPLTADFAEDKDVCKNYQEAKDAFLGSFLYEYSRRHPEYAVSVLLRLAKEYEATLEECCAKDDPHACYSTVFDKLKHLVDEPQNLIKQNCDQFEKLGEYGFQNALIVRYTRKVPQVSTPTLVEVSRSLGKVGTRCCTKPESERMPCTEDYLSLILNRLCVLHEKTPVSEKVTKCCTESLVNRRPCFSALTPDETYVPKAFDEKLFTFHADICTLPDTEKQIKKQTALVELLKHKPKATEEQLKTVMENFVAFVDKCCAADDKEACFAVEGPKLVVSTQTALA

B1: 4E6 monomer (anti-hTRAIL-R2 VHH antibody/Myc-Tag, expressed in E. coli) (VHH)
VHH: EVQLVESGGGSVQAGDSLRLSCAASGRTFGSIRVGWFRQTPGKEREFVAAINRNDGTTYYADSVKGRFTISRDNAKNTVYMQMASLKPEDTAVYYCAAGLQYNRSADRVPVGAVYWGQGTQVTVSS
notes: also called 4E6 VHH monomer; 4E6 monomeric protein
[1]
  Kd: 0.075 nM
Bovine serum albumin
  binding result: no binding (tested: 1 µg/ml)
[2]
  binding result: no binding (tested: 10 µg/ml)
[3]
  binding result: no binding (tested: 10 µg/ml)
